Results published in article PMC9177699, “Dynamic interplay between the periplasmic chaperone SurA and the BAM complex in outer membrane protein folding” (Communications Biology, 2022).

T1: SurA-WT (E. coli, UniProt P0ABZ6 21-428)
T1 construct: gene numbering including the signal peptide; also called wild-type SurA; source: E. coli BL21(DE3), purified (HisTrap with on-column 6 M Gdn-HCl wash, TEV cleavage, second HisTrap); not shown: His6, N-terminal, cleaved
T1 sequence: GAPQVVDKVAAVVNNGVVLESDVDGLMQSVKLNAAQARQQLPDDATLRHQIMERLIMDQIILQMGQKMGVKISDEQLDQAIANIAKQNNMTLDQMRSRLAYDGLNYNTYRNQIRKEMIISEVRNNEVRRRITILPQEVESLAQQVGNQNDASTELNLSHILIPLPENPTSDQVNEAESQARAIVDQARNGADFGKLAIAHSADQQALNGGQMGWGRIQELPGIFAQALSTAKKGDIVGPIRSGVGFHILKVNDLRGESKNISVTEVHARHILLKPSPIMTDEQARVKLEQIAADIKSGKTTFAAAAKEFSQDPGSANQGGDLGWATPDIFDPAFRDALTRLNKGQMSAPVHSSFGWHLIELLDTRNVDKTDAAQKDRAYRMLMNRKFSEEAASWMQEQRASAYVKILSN

T2: SurA-∆P1 (E. coli, UniProt P0ABZ6 21-428, removing residues 172–280)
T2 construct: gene numbering including the signal peptide; source: E. coli BL21(DE3), purified (HisTrap with on-column 6 M Gdn-HCl wash, TEV cleavage, second HisTrap); not shown: His6, N-terminal, cleaved
T2 sequence: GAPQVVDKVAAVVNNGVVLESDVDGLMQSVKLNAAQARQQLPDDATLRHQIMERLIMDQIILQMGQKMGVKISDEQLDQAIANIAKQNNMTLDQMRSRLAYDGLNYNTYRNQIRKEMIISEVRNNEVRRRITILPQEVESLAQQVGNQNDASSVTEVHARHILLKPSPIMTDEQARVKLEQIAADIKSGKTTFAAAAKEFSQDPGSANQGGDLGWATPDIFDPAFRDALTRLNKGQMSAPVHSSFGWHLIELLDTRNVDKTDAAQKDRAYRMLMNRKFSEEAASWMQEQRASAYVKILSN

T3: SurA-∆P2 (E. coli, UniProt P0ABZ6 21-428, removing residues 281–389)
T3 construct: gene numbering including the signal peptide; source: E. coli BL21(DE3), purified (HisTrap with on-column 6 M Gdn-HCl wash, TEV cleavage, second HisTrap); not shown: His6, N-terminal, cleaved
T3 sequence: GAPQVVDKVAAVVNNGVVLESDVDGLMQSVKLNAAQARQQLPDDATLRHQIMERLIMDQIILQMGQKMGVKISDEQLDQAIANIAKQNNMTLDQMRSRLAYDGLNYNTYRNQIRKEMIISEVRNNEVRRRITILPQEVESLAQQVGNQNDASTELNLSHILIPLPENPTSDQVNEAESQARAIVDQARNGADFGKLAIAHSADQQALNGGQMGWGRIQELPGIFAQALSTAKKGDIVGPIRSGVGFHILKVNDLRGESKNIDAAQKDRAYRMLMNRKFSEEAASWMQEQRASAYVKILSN

T4: SurA-core (E. coli, UniProt P0ABZ6 21-428, removing residues 172–389)
T4 construct: gene numbering including the signal peptide; source: E. coli BL21(DE3), purified (HisTrap with on-column 6 M Gdn-HCl wash, TEV cleavage, second HisTrap); not shown: His6, N-terminal, cleaved
T4 sequence: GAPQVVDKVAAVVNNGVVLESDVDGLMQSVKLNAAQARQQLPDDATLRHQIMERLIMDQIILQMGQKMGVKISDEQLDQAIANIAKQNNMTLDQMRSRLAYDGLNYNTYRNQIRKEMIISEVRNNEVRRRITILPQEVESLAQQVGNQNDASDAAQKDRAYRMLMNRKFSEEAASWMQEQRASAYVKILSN


Experiments:
[1] = molecular target: β-barrel assembly machinery (BAM) complex, BamABCDE (E. coli, UniProt P0A940 21-810; P77774 20-392; P0A903 25-344; P0AC02 20-245; P0A937 20-113); assay: cell-based or functional assay
[2] = molecular target: T5, BamB (as a subunit of the purified BAM complex) (E. coli, UniProt P77774 20-392); assay: HDX-MS; differential HDX; 8 µM BAM with 10 µM SurA-WT or SurA-core, or 8 µM SurA-WT with 10 µM BAM; 0.02% DDM, 10 mM potassium phosphate, pH 8.0; labelling at 4 °C for 0.5, 2, 30, 120 min; details: both partners purified
T5 construct: BamB, E. coli, accessory lipoprotein of BAM, expressed from pJH114; Stood in the assays within the whole BAM complex, not alone

SurA-WT = molecular target: T1, SurA-WT; assay: MST; 100 nM Alexa Fluor 488-labelled tOmpA, SurA or SurA domain deletion variant titrated 100 µM-3 nM, 0.8 M urea, 20 mM Tris-HCl, pH 8.0, 25 °C; Hill binding model; apparent Kd; details: both partners purified
SurA-∆P1 = molecular target: T2, SurA-∆P1; assay: as above; details: both partners purified
SurA-∆P2 = molecular target: T3, SurA-∆P2; assay: as above; details: both partners purified
SurA-core = molecular target: T4, SurA-core; assay: as above; details: both partners purified

Binder | rate of BAM-catalysed folding of tOmpA into proteoliposomes (cold SDS–PAGE), with SurA-core against SurA-WT [1] [fold] | binding result [2] | Kd (SurA-WT) [µM] | Kd (SurA-∆P1) [µM] | Kd (SurA-∆P2) [µM] | Kd (SurA-core) [µM]
SurA-core (SurA 21-428 without residues 172-389, His-tag cleaved) (domain or fragment, E. coli, UniProt P0ABZ6 21-428, looked up, numbers are the gene numbering (including the signal peptide); A G of the TEV site probably stays after cleavage (surmised); source: E. coli BL21(DE3), purified (HisTrap, on-column denaturation with 6 M Gdn-HCl, TEV cleavage, second HisTrap); not shown: His6, N-terminal, cleaved) APQVVDKVAAVVNNGVVLESDVDGLMQSVKLNAAQARQQLPDDATLRHQIMERLIMDQIILQMGQKMGVKISDEQLDQAIANIAKQNNMTLDQMRSRLAYDGLNYNTYRNQIRKEMIISEVRNNEVRRRITILPQEVESLAQQVGNQNDASDAAQKDRAYRMLMNRKFSEEAASWMQEQRASAYVKILSN | ~3 | binds |  |  |  | 
Alexa Fluor 488-labelled tOmpA (domain or fragment, Alexa Fluor 488 (C5 maleimide) on the added cysteine, N-terminal Met and the Cys residue added immediately following it; unfolded: kept in 8 M urea and diluted to 0.8 M urea for the assay; also called Cys-tOmpA) MCAPKDNTWYTGAKLGWSQYHDTGFINNNGPTHENQLGAGAFGGYQVNPYVGFEMGYDWLGRMPYKGSVENGAYKAQGVQLTAKLGYPITDDLDIYTRLGGMVWRADTKSNVYGKNHDTGVSPVFAGGVEYAITPEIATRLEYQWTNNIGDAHTIGTRPDNGMLSLGVSYRFG |  |  | 3.7 | 14.5 | 8.8 | 10.2
